Results on three molecules are retold here after article PMC11500415, “Chemical inhibition of stomatal differentiation by perturbation of the master-regulatory bHLH heterodimer via an ACT-Like domain” (Nature Communications, 2024).

First the molecules themselves.
B1: MUTE, recombinant full-length protein (1-202), as used in ITC (natural protein, A. thaliana, UniProt Q9M8K6 1-202, looked up)
chain: MSHIAVERNRRRQMNEHLKSLRSLTPCFYIKRGDQASIIGGVIEFIKELQQLVQVLESKKRRKTLNRPSFPYDHQTIEPSSLGAATTRVPFSRIENVMTTSTFKEVGACCNSPHANVEAKISGSNVVLRVVSRRIVGQLVKIISVLEKLSFQVLHLNISSMEETVLYFFVVKIGLECHLSLEELTLEVQKSFVSDEVIVSTN
notes: called full-length in the results; source: E. coli BL21, purified (glutathione resin, thrombin digestion, Superdex-200); not shown: GST, N-terminal, cleaved
B2: SCREAM (SCRM), recombinant full-length protein (1-494) (natural protein, A. thaliana, UniProt Q9LSE2 1-494, looked up)
chain: MGLDGNNGGGVWLNGGGGEREENEEGSWGRNQEDGSSQFKPMLEGDWFSSNQPHPQDLQMLQNQPDFRYFGGFPFNPNDNLLLQHSIDSSSSCSPSQAFSLDPSQQNQFLSTNNNKGCLLNVPSSANPFDNAFEFGSESGFLNQIHAPISMGFGSLTQLGNRDLSSVPDFLSARSLLAPESNNNNTMLCGGFTAPLELEGFGSPANGGFVGNRAKVLKPLEVLASSGAQPTLFQKRAAMRQSSGSKMGNSESSGMRRFSDDGDMDETGIEVSGLNYESDEINESGKAAESVQIGGGGKGKKKGMPAKNLMAERRRRKKLNDRLYMLRSVVPKISKMDRASILGDAIDYLKELLQRINDLHNELESTPPGSLPPTSSSFHPLTPTPQTLSCRVKEELCPSSLPSPKGQQARVEVRLREGRAVNIHMFCGRRPGLLLATMKALDNLGLDVQQAVISCFNGFALDVFRAEQCQEGQEILPDQIKAVLFDTAGYAGMI
notes: SCRM (ICE1), A. thaliana, residues 1-494; called full-length in the results; The methods describe thrombin removal of GST for all recombinant proteins; For the BLI runs of SCRM with MUTE one partner must have kept GST (anti-GST probes); also called ICE1; source: E. coli BL21, purified (glutathione resin, thrombin digestion, Superdex-200); not shown: GST, N-terminal, cleaved

Assay [1] concerns Arabidopsis wild-type (WT) seedlings. Description: Stomatal development bioassay, seedlings in liquid culture. The assay is classed as in vivo. The settings on record: 50 μM; WT seedlings, liquid culture. The method, then:
Arabidopsis accession Columbia (Col-0) was used as wild-type. […] Their genotype and transcript reduction were confirmed. The presence of transgenes/mutant alleles were confirmed by genotyping. For liquid culture with Stomidazolone (AYSJ929, compound 3), the analogs (AYSJ1059 (compound 5) and AYSJ1061 (compound 6)), degraded compound lzx103 (compound 4), and SIM3* (compound 7), all compounds were dissolved in dimethyl sulfoxide (DMSO, Molecular biology grade, Fujifilm Wako, Japan 046-21981), Col-0 seeds were sown in 96-well plates (TL5003; True Line) containing 95 μL of 1/2 MS media containing 0.5% sucrose with rotary shaking at 140 rpm under continuous light at 22 °C. Five μL of compounds were dissolved in DMSO at 10 mM and diluted with liquid 1/2 MS media to 1 mM and added on 1-day-old seedlings (final concentration, 50 μM). Seedlings were incubated for 8 days, and at day 9 seedling abaxial cotyledons were observed through confocal microscopy. For liquid culture of scrm-D_S343 and scrm-D_S423, 1/2 MS liquid media without sucrose was used. For the solid culture, 0, 20, 50 or 100 μM Stomidazolone were solidified with low-melting agarose (5805S, PrimeGelTM Agarose LMT 1-20 K, TAKARA Bio). Briefly, 1/2 MS salt, 0.5% sucrose, and 0.8% low melting agarose were mixed in water and autoclaved. After cooling the medium at around 30 °C, Stomidazolone (500x, dissolved in DMSO) was added and poured into 90 mm petri dishes (Asnol Petri Dish JP φ90 x 15 mm, 3-1491-01, AS ONE). Col-0 seeds were sown on Stomidazolone-containing 1/2 MS agarose media and grown under continuous light for 9 days.
For confocal microscopy, cell peripheries of seedlings were visualized with propidium iodide (Sigma, P4170). Images were acquired using LSM800 or LSM700 (Zeiss) using a 20x lens. The GFP, YFP reporter and PI signals were detected with excitation at 488 nm and an emission filter of 410 to 546 nm, at 488 nm and an emission filter of 410 to 546 nm, and with excitation at 561 nm and 582–617 nm emission range, respectively. Raw data were collected with 1024 × 1024 pixel images. For qualitative image presentation, Adobe Photoshop CC was used to trim and uniformly adjust the contrast/brightness.
For quantitative analysis of the abaxial leaf epidermis, confocal images were taken on the days after germination as indicated in the Figure legends. Preparation of images was done as described previously[32],[70]. For counting epidermal cell types, stomatal density, stomatal precursor cells (meristemoids), total stomata-lineage cells (stomata and meristemoids) were calculated by counting cell types in an area of 0.4 mm^2 (0.63 mm × 0.63 mm) and plotted as per mm^2. A series of Z-stack confocal images was obtained to obtain images covering the epidermis and capturing GFP/YFP signal from the reporter lines. The area and the number of epidermal cells were quantified by using FIJI-ImageJ. Statistical analyses were performed using R ver. 4.0.2. Sample sizes (n) are indicated and defined in each legend. For the multiple sample comparison, 1-way ANOVA was performed followed by a post hoc Tukey HSD test. For the two-sample comparison, Student’s T-test was performed. Graphs were generated using R ggplot2 package. For all boxplots, each box represents IQR (interquartile range), in which top, middle line, and bottom indicating 75, 50, and 25 percentiles, respectively, and the bar representing maximum to minimal values. Each magenta dot represents jittered individual data point. The datapoints that go beyond the bar are outliers, which are indicated as black dots. If the data point is greater than Q3 + 1.5*IQR (above the third quartile is greater than 1.5 times of the interquartile range) or less than Q1 − 1.5*IQR, that data point is classified as outlier. The color of Boxplot graph was based on ColorBrewer.org. The value of n, the number of each experiment or samples, the means of error bars, and how statistical significance was defined are indicated in a relevant figure legend. […]

For the next assay, the target named is T1, SCRM-FAMA heterodimer (Arabidopsis thaliana, UniProt Q56YJ8).
T1 construct: truncated SPCH and FAMA proteins lacking their N-terminal domain were used in yeast; expressed in transfected cells; host or cells: yeast strain AH109
T1 sequence (Q56YJ8 190-414, one chain of several): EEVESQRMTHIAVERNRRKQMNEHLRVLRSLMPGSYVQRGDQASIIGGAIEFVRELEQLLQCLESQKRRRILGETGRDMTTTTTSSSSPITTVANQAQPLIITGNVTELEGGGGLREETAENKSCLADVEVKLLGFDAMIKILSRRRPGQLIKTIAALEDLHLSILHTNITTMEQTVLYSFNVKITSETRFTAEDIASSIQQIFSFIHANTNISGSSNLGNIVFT
The assay can be described thus: Y2H growth and quantitative α-galactosidase assay. It counts as cell-based. The following applies: 50 μM; 1 mM 3-AT; N-terminally truncated FAMA. The method, then: (§1) Y2H assays were performed using the Matchmaker^TM Two-Hybrid System (Clontech). Bait (pGBKT7) and prey (pGADT7) constructs were co-transformed into the yeast strain AH109 using Frozen-EZ Yeast Transformation II Kit (Zymo Research, T2001). The resulting transformants were spotted on SD ( − Leu, −Trp) and SD ( − Trp, −Leu, −His) selection media containing different concentrations of 3-amino-1,2,4-triazole (Sigma, A8056) as previously reported. Quantitative α-galactosidase assay was also performed according to manufactural instruction (Clontech). Briefly, the transformants were incubated in 2 ml SD medium with 0, 10, 50 100 μM Stomidazolone (3) or SIM3* (7) with rotary shake (220 rpm) at 30 °C overnight. The cultured media containing yeast were transferred to microtubes and centrifuged to obtain the supernatant. The colorimetric assay was performed by incubating 8 μL of supernatant with 24 μL Assay Buffer that contains 0.5 M sodium acetate (pH 4.5) (Nakalai tesque, 31137-25): 100 mM p-nitrophenyl α-D-Galactopyranoside Solution (Sigma N0877) = 2:1 (v/v) at 30 °C for 60 min, then terminated by adding 960 μL 1X Stop Solution (0.1 M sodium carbonate, Fujifilm Wako 195-01582). After OD410 was recorded, α-galactosidase units were calculated according to the protocol (Clontech, P3024-1).

The next assay deals with T2, SCRM-MUTE heterodimer (Arabidopsis thaliana, UniProt Q9M8K6).
T2 construct: expressed in transfected cells; host or cells: yeast strain AH109
T2 sequence (Q9M8K6 1-202): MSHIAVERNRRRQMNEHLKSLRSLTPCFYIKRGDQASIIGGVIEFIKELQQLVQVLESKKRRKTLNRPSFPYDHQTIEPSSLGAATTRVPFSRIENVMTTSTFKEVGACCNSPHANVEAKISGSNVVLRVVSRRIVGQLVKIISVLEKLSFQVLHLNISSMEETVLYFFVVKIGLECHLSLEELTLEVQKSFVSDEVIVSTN
The assay can be described thus: Y2H growth and quantitative α-galactosidase assay. The assay is classed as cell-based. The following applies: 50 μM; 1 mM 3-AT. The method, then: as §1

The target of another assay is T3, SCRM-SPCH heterodimer (Arabidopsis thaliana, UniProt Q700C7).
T3 construct: truncated SPCH and FAMA proteins lacking their N-terminal domain were used in yeast; expressed in transfected cells; host or cells: yeast strain AH109
T3 sequence (Q700C7 98-364 limits assumed): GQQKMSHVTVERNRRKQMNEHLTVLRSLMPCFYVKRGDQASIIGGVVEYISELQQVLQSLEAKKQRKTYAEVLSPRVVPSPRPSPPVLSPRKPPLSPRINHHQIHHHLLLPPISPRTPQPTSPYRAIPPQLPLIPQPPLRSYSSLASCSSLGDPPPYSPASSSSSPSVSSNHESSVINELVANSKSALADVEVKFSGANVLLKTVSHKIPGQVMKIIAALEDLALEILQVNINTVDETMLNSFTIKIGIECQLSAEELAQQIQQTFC
The assay can be described thus: Y2H growth and quantitative α-galactosidase assay. The assay is classed as cell-based. The settings on record: 50 μM; 1 mM 3-AT; N-terminally truncated SPCH. The method, then: as §1

The next assay deals with stomatal movement. Also on record: method as in PMID 35042960. The settings on record: previous chemical screens and SAR studies; cited from earlier work.
In assay [2] the target is B2. Description: ITC; SCRM to MUTE in the presence of AYSJ1059 (5); Malvern PEAQ-ITC; PBS with 2% DMSO and 1 mM DTT; methods: 30 °C, pH 7.4; legend of Supplementary Table 2: pH 7.2, 25 °C. The settings on record: both partners purified.
The target in assay [3] is B2. The assay can be described thus: ITC; SCRM to MUTE in the presence of AYSJ1061 (6); Malvern PEAQ-ITC; PBS with 2% DMSO and 1 mM DTT; methods: 30 °C, pH 7.4; legend of Supplementary Table 2: pH 7.2, 25 °C. The following applies: both partners purified. A general note: ITC needs no label: the signal is the heat of the interaction.
The target of assay [4] is B1. Description: ITC; SCRM to MUTE in the presence of AYSJ1059 (5); Malvern PEAQ-ITC; PBS with 2% DMSO and 1 mM DTT; methods: 30 °C, pH 7.4; legend of Supplementary Table 2: pH 7.2, 25 °C. The following applies: both partners purified.
Assay [5] has as its target B1. Description: ITC; SCRM to MUTE in the presence of AYSJ1061 (6); Malvern PEAQ-ITC; PBS with 2% DMSO and 1 mM DTT; methods: 30 °C, pH 7.4; legend of Supplementary Table 2: pH 7.2, 25 °C. The settings on record: both partners purified.
The target of assay [6] is B1. The assay can be described thus: ITC; SCRM to MUTE pre-incubated with Stomidazolone (3); Malvern PEAQ-ITC; PBS with 2% DMSO and 1 mM DTT; methods: 30 °C, pH 7.4; legend of Supplementary Table 2: pH 7.2, 25 °C. The following applies: both partners purified.
Assay [7] has as its target B1. The assay can be described thus: ITC; SCRM to MUTE, no compound; Malvern PEAQ-ITC; PBS with 2% DMSO and 1 mM DTT; methods: 30 °C, pH 7.4; legend of Supplementary Table 2: pH 7.2, 25 °C; means of two experiments. The settings on record: both partners purified.

For `Cc1nc(-c2ccccc2)c(NS(=O)(=O)c2ccccc2)o1` [SIM3*, reference compound], in [1], the “effect on stomatal development (in words)” value was “no effects”. The “effect on association in Y2H growth assay” value on SCRM-FAMA heterodimer, at SCRM-MUTE heterodimer and on SCRM-SPCH heterodimer was “no effects” each time. The “effect on stomatal movement (in words)” value in the assay with stomatal movement is “inhibit stomatal movement”.
As to B1, the figures for the Kd in [2] and in assay [3] were 9.6 ± 1.8 nM and 11.4 ± 2.1 nM, respectively.
Regarding B2, the “stoichiometry N” value turned out to be 1 in [4], 1.1 in assay [5], 0.91 in [6] and 0.96 in assay [7].

Usually Kd stands for the equilibrium constant for the complex coming apart. In general, stoichiometry N refers to a count of units in the complex or per binding partner.
